Measured values published in patent US20160136234A1.

Legend:
Assay in all cases: cell-based or functional assay
[1] = target: MEK1 (h) (human) (UniProt Q02750)
[2] = target: SGK (h) (human) (UniProt O00141)
[3] = target: Rsk1 (h) (human) (UniProt Q15418)
[4] = target: Pim-2 (h) (human) (UniProt Q9P1W9)
[5] = target: T1, TBK1 (h) (human) (UniProt Q9UHD2)
T1 sequence (looked up): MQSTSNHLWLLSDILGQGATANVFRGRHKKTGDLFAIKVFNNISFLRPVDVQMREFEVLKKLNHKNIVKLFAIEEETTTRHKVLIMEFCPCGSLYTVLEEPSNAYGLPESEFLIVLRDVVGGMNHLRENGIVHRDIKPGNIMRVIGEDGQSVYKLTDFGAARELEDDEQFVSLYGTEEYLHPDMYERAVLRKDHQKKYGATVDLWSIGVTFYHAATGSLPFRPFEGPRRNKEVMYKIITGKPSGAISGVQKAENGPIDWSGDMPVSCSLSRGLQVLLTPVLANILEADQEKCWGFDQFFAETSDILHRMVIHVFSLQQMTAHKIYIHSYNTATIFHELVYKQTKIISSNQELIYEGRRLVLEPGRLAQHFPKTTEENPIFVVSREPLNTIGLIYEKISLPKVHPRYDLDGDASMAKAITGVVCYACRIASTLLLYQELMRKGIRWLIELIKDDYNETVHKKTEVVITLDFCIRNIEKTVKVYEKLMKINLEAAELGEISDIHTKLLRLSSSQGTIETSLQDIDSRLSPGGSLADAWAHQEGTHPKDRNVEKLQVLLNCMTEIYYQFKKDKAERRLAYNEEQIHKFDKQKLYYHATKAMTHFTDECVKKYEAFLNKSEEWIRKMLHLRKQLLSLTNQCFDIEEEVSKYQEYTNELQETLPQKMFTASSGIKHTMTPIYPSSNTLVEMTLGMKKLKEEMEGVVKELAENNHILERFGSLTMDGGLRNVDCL

[6] = target: PTK5 (h) (human) (UniProt P42685)
[7] = target: T2, IRAK4 (h) (human) (UniProt Q9NWZ3)
T2 sequence (looked up): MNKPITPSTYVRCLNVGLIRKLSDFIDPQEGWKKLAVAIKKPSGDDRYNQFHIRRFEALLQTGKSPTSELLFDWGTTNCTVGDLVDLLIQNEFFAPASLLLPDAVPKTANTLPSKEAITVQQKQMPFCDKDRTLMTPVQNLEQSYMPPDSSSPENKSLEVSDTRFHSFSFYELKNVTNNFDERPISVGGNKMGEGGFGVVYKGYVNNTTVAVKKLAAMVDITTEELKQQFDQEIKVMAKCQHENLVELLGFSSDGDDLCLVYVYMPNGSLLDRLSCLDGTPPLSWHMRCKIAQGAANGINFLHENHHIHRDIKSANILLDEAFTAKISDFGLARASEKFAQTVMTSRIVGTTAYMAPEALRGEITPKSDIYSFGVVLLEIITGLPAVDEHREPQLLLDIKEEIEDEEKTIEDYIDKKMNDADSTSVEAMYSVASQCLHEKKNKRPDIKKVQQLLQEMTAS

[8] = target: CDK1/cyclinB (h) (human) (UniProt P06493)
[9] = target: Tie2 (h) (human) (UniProt Q02763)
[10] = target: Flt4 (h) (human) (UniProt P35916)
[11] = target: T3, ULK2 (h) (human) (UniProt Q8IYT8)
T3 sequence (looked up): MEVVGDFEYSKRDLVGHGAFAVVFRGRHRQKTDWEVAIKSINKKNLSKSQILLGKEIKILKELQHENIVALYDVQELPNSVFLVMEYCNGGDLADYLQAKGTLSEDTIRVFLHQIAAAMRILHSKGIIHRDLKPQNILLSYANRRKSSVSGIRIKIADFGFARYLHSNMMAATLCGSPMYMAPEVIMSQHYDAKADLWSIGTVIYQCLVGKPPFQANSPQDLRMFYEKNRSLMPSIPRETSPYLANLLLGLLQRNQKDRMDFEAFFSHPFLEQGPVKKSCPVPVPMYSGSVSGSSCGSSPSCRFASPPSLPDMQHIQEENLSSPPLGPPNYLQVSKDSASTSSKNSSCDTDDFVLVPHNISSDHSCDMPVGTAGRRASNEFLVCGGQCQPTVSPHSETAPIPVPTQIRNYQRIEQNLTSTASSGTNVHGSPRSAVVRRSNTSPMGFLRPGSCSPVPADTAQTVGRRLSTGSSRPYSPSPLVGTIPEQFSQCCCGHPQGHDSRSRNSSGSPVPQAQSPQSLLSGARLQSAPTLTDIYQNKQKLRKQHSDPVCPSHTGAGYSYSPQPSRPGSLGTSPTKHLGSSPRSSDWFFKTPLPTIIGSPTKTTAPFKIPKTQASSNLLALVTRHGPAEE

[12] = target: JAK2 (h) (human) (UniProt O60674)
[13] = target: T4, TSSK1 (h) (human) (UniProt Q9BXA7)
T4 sequence (looked up): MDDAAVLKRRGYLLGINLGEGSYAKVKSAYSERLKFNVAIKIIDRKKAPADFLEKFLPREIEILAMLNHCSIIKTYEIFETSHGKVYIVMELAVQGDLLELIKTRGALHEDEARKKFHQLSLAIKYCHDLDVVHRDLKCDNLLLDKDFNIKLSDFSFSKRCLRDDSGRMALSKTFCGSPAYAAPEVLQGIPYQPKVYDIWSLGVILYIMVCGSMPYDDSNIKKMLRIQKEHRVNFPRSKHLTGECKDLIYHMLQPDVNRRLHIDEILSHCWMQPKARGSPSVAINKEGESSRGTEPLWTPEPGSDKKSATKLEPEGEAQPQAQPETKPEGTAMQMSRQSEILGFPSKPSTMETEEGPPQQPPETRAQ

[14] = target: p70S6K (h) (human) (UniProt P23443)

Chain of Flt4 (h) (human) (P35916 800-1363 limits assumed): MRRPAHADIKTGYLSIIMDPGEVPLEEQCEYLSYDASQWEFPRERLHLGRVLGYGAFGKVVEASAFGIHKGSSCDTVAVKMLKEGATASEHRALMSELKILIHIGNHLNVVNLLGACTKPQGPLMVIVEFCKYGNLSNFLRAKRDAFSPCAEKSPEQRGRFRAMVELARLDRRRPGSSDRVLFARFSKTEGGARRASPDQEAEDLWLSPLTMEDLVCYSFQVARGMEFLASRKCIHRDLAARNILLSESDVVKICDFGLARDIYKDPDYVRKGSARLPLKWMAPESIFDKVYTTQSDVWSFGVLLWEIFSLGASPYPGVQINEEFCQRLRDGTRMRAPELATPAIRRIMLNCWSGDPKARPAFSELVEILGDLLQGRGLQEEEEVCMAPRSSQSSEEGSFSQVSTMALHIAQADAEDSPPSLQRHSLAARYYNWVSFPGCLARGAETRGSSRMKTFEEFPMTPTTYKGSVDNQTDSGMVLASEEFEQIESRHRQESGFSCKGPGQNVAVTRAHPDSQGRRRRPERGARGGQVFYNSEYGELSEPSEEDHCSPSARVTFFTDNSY
Chain of Tie2 (h) (human) (Q02763 771-1124 limits assumed): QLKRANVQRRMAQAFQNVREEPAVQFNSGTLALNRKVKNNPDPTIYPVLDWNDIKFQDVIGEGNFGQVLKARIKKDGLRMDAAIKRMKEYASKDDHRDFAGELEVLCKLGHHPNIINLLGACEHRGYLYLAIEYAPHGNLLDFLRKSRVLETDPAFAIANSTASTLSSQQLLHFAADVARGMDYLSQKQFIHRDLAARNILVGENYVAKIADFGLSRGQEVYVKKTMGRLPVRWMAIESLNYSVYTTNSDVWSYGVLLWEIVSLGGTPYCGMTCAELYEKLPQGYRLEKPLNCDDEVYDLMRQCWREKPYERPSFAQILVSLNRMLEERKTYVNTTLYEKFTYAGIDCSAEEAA
Chain of SGK (h) (human) (O00141 60-431 limits assumed): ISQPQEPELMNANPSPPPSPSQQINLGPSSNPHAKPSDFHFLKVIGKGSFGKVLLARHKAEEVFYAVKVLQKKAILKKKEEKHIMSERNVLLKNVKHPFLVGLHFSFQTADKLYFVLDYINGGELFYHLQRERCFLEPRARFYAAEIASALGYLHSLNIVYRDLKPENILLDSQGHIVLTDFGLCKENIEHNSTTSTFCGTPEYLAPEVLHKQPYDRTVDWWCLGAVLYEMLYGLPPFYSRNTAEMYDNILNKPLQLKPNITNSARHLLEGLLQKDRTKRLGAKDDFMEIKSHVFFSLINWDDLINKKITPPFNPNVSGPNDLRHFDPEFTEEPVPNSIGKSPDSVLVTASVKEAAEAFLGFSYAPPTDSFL
Chain of Rsk1 (h) (human) (Q15418 whole entry): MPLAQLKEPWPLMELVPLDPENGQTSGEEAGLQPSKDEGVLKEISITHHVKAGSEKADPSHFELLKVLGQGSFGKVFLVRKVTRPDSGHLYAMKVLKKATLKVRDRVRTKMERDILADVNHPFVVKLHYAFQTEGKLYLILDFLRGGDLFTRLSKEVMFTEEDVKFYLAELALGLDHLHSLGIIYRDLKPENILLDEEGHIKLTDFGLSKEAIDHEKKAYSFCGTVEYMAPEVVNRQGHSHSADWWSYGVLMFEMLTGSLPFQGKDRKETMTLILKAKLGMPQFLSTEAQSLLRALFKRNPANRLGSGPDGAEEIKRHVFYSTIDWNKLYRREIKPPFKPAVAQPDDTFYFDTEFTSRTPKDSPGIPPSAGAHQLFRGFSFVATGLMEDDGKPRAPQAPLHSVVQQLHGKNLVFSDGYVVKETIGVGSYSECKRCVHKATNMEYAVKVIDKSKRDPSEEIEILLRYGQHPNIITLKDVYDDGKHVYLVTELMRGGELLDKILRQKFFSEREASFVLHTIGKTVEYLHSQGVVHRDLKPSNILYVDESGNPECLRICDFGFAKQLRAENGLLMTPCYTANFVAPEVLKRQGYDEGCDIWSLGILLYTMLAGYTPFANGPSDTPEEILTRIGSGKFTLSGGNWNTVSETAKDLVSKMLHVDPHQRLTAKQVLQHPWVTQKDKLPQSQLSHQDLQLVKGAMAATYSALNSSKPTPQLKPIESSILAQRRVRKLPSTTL
Chain of PTK5 (h) (human) (P42685 whole entry): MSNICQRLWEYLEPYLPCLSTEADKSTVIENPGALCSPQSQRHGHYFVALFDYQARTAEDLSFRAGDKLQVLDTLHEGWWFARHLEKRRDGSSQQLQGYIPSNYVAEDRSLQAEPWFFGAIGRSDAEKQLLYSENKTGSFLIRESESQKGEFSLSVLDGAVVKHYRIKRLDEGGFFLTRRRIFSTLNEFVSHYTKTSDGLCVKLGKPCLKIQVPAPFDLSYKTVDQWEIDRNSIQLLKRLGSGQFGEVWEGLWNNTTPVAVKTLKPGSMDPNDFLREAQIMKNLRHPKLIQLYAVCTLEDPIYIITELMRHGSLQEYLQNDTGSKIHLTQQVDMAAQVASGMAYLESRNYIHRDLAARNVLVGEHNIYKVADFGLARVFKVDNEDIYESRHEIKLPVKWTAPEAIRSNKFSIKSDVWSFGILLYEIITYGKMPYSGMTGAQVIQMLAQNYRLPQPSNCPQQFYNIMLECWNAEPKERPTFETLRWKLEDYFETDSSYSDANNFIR

% activity at 100 µM [1]: 77% | % activity at 100 µM [2]: 48% | % activity at 100 µM [3]: 46% | % activity at 100 µM [4]: 76% | % activity at 100 µM [5]: 37% | % activity at 100 µM [6]: 132% | % activity at 100 µM [7]: 59% | % activity at 100 µM [8]: 73% | % activity at 100 µM [9]: 26% | % activity at 100 µM [10]: 83% | % activity at 100 µM [11]: 122% | % activity at 100 µM [12]: 133% | % activity at 100 µM [13]: 79% | % activity at 100 µM [14]: 35%
Substance: MMI-0300 (peptide)
